According to article PMC10047360:

Assay: Western blot, mature upper band, B3GnT2-/- HEK293T
Conditions: glycan lost; control: wild-type LRP6

Protein	localisation_or_trafficking
LRP6: N281Q (protein) parent chain: MGAVLRSLLACSFCVLLRAAPLLLYANRRDLRLVDATNGKENATIVVGGLEDAAAVDFVFSHGLIYWSDVSEEAIKRTEFNKTESVQNVVVSGLLSPDGLACDWLGEKLYWTDSETNRIEVSNLDGSLRKVLFWQELDQPRAIALDPSSGFMYWTDWGEVPKIERAGMDGSSRFIIINSEIYWPNGLTLDYEEQKLYWADAKLNFIHKSNLDGTNRQAVVKGSLPHPFALTLFEDILYWTDWSTHSILACNKYTGEGLREIHSDIFSPMDIHAFSQQRQPNATNPCGIDNGGCSHLCLMSPVKPFYQCACPTGVKLLENGKTCKDGATELLLLARRTDLRRISLDTPDFTDIVLQLEDIRHAIAIDYDPVEGYIYWTDDEVRAIRRSFIDGSGSQFVVTAQIAHPDGIAVDWVARNLYWTDTGTDRIEVTRLNGTMRKILISEDLEEPRAIVLDPMVGYMYWTDWGEIPKIERAALDGSDRVVLVNTSLGWPNGLALDYDEGKIYWGDAKTDKIEVMNTDGTGRRVLVEDKIPHIFGFTLLGDYVYWTDWQRRSIERVHKRSAEREVIIDQLPDLMGLKATNVHRVIGSNPCAEENGGCSHLCLYRPQGLRCACPIGFELISDMKTCIVPEAFLLFSRRADIRRISLETNNNNVAIPLTGVKEASALDFDVTDNRIYWTDISLKTISRAFMNGSALEHVVEFGLDYPEGMAVDWLGKNLYWADTGTNRIEVSKLDGQHRQVLVWKDLDSPRALALDPAEGFMYWTEWGGKPKIDRAAMDGSERTTLVPNVGRANGLTIDYAKRRLYWTDLDTNLIESSNMLGLNREVIADDLPHPFGLTQYQDYIYWTDWSRRSIERANKTSGQNRTIIQGHLDYVMDILVFHSSRQSGWNECASSNGHCSHLCLAVPVGGFVCGCPAHYSLNADNRTCSAPTTFLLFSQKSAINRMVIDEQQSPDIILPIHSLRNVRAIDYDPLDKQLYWIDSRQNMIRKAQEDGSQGFTVVVSSVPSQNLEIQPYDLSIDIYSRYIYWTCEATNVINVTRLDGRSVGVVLKGEQDRPRAVVVNPEKGYMYFTNLQERSPKIERAALDGTEREVLFFSGLSKPIALALDSRLGKLFWADSDLRRIESSDLSGANRIVLEDSNILQPVGLTVFENWLYWIDKQQQMIEKIDMTGREGRTKVQARIAQLSDIHAVKELNLQEYRQHPCAQDNGGCSHICLVKGDGTTRCSCPMHLVLLQDELSCGEPPTCSPQQFTCFTGEIDCIPVAWRCDGFTECEDHSDELNCPVCSESQFQCASGQCIDGALRCNGDANCQDKSDEKNCEVLCLIDQFRCANGQCIGKHKKCDHNVDCSDKSDELDCYPTEEPAPQATNTVGSVIGVIVTIFVSGTVYFICQRMLCPRMKGDGETMTNDYVVHGPASVPLGYVPHPSSLSGSLPGMSRGKSMISSLSIMGGSSGPPYDRAHVTGASSSSSSSTKGTYFPAILNPPPSPATERSHYTMEFGYSSNSPSTHRSYSYRPYSYRHFAPPTTPCSTDVCDSDYAPSRRMTSVATAKGYTSDLNYDSEPVPPPPTPRSQYLSAEENYESCPPSPYTERSYSHHLYPPPPSPCTDSS	no change
LRP6: N433Q (protein) parent chain: MGAVLRSLLACSFCVLLRAAPLLLYANRRDLRLVDATNGKENATIVVGGLEDAAAVDFVFSHGLIYWSDVSEEAIKRTEFNKTESVQNVVVSGLLSPDGLACDWLGEKLYWTDSETNRIEVSNLDGSLRKVLFWQELDQPRAIALDPSSGFMYWTDWGEVPKIERAGMDGSSRFIIINSEIYWPNGLTLDYEEQKLYWADAKLNFIHKSNLDGTNRQAVVKGSLPHPFALTLFEDILYWTDWSTHSILACNKYTGEGLREIHSDIFSPMDIHAFSQQRQPNATNPCGIDNGGCSHLCLMSPVKPFYQCACPTGVKLLENGKTCKDGATELLLLARRTDLRRISLDTPDFTDIVLQLEDIRHAIAIDYDPVEGYIYWTDDEVRAIRRSFIDGSGSQFVVTAQIAHPDGIAVDWVARNLYWTDTGTDRIEVTRLNGTMRKILISEDLEEPRAIVLDPMVGYMYWTDWGEIPKIERAALDGSDRVVLVNTSLGWPNGLALDYDEGKIYWGDAKTDKIEVMNTDGTGRRVLVEDKIPHIFGFTLLGDYVYWTDWQRRSIERVHKRSAEREVIIDQLPDLMGLKATNVHRVIGSNPCAEENGGCSHLCLYRPQGLRCACPIGFELISDMKTCIVPEAFLLFSRRADIRRISLETNNNNVAIPLTGVKEASALDFDVTDNRIYWTDISLKTISRAFMNGSALEHVVEFGLDYPEGMAVDWLGKNLYWADTGTNRIEVSKLDGQHRQVLVWKDLDSPRALALDPAEGFMYWTEWGGKPKIDRAAMDGSERTTLVPNVGRANGLTIDYAKRRLYWTDLDTNLIESSNMLGLNREVIADDLPHPFGLTQYQDYIYWTDWSRRSIERANKTSGQNRTIIQGHLDYVMDILVFHSSRQSGWNECASSNGHCSHLCLAVPVGGFVCGCPAHYSLNADNRTCSAPTTFLLFSQKSAINRMVIDEQQSPDIILPIHSLRNVRAIDYDPLDKQLYWIDSRQNMIRKAQEDGSQGFTVVVSSVPSQNLEIQPYDLSIDIYSRYIYWTCEATNVINVTRLDGRSVGVVLKGEQDRPRAVVVNPEKGYMYFTNLQERSPKIERAALDGTEREVLFFSGLSKPIALALDSRLGKLFWADSDLRRIESSDLSGANRIVLEDSNILQPVGLTVFENWLYWIDKQQQMIEKIDMTGREGRTKVQARIAQLSDIHAVKELNLQEYRQHPCAQDNGGCSHICLVKGDGTTRCSCPMHLVLLQDELSCGEPPTCSPQQFTCFTGEIDCIPVAWRCDGFTECEDHSDELNCPVCSESQFQCASGQCIDGALRCNGDANCQDKSDEKNCEVLCLIDQFRCANGQCIGKHKKCDHNVDCSDKSDELDCYPTEEPAPQATNTVGSVIGVIVTIFVSGTVYFICQRMLCPRMKGDGETMTNDYVVHGPASVPLGYVPHPSSLSGSLPGMSRGKSMISSLSIMGGSSGPPYDRAHVTGASSSSSSSTKGTYFPAILNPPPSPATERSHYTMEFGYSSNSPSTHRSYSYRPYSYRHFAPPTTPCSTDVCDSDYAPSRRMTSVATAKGYTSDLNYDSEPVPPPPTPRSQYLSAEENYESCPPSPYTERSYSHHLYPPPPSPCTDSS	no change
